From patent publication US20200306373A1 (Hoffmann-La Roche, published 2020)

T1: murine ICOS (murine, UniProt Q9WVS0 21-200)
T1 construct: in the splenocyte assays the endogenous protein on murine T cells; also called mICOS
T1 sequence: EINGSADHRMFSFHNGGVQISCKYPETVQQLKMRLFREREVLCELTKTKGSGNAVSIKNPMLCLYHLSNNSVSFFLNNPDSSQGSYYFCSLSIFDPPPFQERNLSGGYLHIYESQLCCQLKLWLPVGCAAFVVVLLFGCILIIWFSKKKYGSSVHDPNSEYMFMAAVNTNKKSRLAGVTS

B1: Fab fragment 16E09 (Fab, V domains shown)
VH: EVQLVQSGAEVKKPGESLKISCKGSGYSFTSYWIGWVRQMPGKGLEWMGIIYPGDSDTRYSPSFQGQVTISADKSISTAYLQWSSLKASDTAMYYCARSSGPYGLYLDYWGQGTLVTVSS
VL: not shown
notes: Phage-derived Fab expressed in E. coli TG1 and purified on His GraviTrap columns; also called 16E09 anti-ICOS antibody as Fab fragment; purified Fab fragment 16E09
B2: ICOS(16E09)-FAP(28H1) 2+1, FAP-targeted anti-murine ICOS_2+1, mIgG1 DAPG, bivalent murine ICOS (16E09), monovalent FAP (28H1) (bispecific antibody)
heavy 1: EVQLVQSGAEVKKPGESLKISCKGSGYSFTSYWIGWVRQMPGKGLEWMGIIYPGDSDTRYSPSFQGQVTISADKSISTAYLQWSSLKASDTAMYYCARSSGPYGLYLDYWGQGTLVTVSSAKTTPPSVYPLAPGSAAQTNSMVTLGCLVKGYFPEPVTVTWNSGSLSSGVHTFPAVLQSDLYTLSSSVTVPSSTWPSQTVTCNVAHPASSTKVDKKIVPRDCGCKPCICTVPEVSSVFIFPPKPKDVLTITLTPKVTCVVVAISKDDPEVQFSWFVDDVEVHTAQTKPREEQINSTFRSVSELPIMHQDWLNGKEFKCRVNSAAFGAPIEKTISKTKGRPKAPQVYTIPPPKEQMAKDKVSLTCMITNFFPEDITVEWQWNGQPAENYDNTQPIMDTDGSYFVYSDLNVQKSNWEAGNTFTCSVLHEGLHNHHTEKSLSHSPGGGGGSGGGGSGGGGSGGGGSEIVLTQSPGTLSLSPGERATLSCRASQSVSRSYLAWYQQKPGQAPRLLIIGASTRATGIPDRFSGSGSGTDFTLTISRLEPEDFAVYYCQQGQVIPPTFGQGTKVEIK
heavy 2: EVQLVQSGAEVKKPGESLKISCKGSGYSFTSYWIGWVRQMPGKGLEWMGIIYPGDSDTRYSPSFQGQVTISADKSISTAYLQWSSLKASDTAMYYCARSSGPYGLYLDYWGQGTLVTVSSAKTTPPSVYPLAPGSAAQTNSMVTLGCLVKGYFPEPVTVTWNSGSLSSGVHTFPAVLQSDLYTLSSSVTVPSSTWPSQTVTCNVAHPASSTKVDKKIVPRDCGCKPCICTVPEVSSVFIFPPKPKDVLTITLTPKVTCVVVAISKDDPEVQFSWFVDDVEVHTAQTKPREEQINSTFRSVSELPIMHQDWLNGKEFKCRVNSAAFGAPIEKTISKTKGRPKAPQVYTIPPPKKQMAKDKVSLTCMITNFFPEDITVEWQWNGQPAENYKNTQPIMKTDGSYFVYSKLNVQKSNWEAGNTFTCSVLHEGLHNHHTEKSLSHSPGGGGGSGGGGSGGGGSGGGGSEVQLLESGGGLVQPGGSLRLSCAASGFTFSSHAMSWVRQAPGKGLEWVSAIWASGEQYYADSVKGRFTISRDNSKNTLYLQMNSLRAEDTAVYYCAKGWLGNFDYWGQGTLVTVSS
light: not shown
notes: Murine IgG1 DAPG DDKK; also called ICOS(16E09)-FAP(28H1) 2 + 1 muIgG1 DAPG
B3: FAP-targeted mICOSL, mIgG1 DAPG, bivalent murine ICOSL (Gly47-Lys279), monovalent FAP (28H1) c-terminal fused of the heavy chain C region (Fc fusion)
chain 1: ETEVGAMVGSNVVLSCIDPHRRHFNLSGLYVYWQIENPEVSVTYYLPYKSPGINVDSSYKNRGHLSLDSMKQGNFSLYLKNVTPQDTQEFTCRVFMNTATELVKILEEVVRLRVAANFSTPVISTSDSSNPGQERTYTCMSKNGYPEPNLYWINTTDNSLIDTALQNNTVYLNKLGLYDVISTLRLPWTSRGDVLCCVENVALHQNITSISQAESFTGNNTKNPQETHNNELKGSPGSSSSSGSADGCKPCICTVPEVSSVFIFPPKPKDVLTITLTPKVTCVVVAISKDDPEVQFSWFVDDVEVHTAQTKPREEQINSTFRSVSELPIMHQDWLNGKEFKCRVNSAAFGAPIEKTISKTKGRPKAPQVYTIPPPKKQMAKDKVSLTCMITNFFPEDITVEWQWNGQPAENYKNTQPIMKTDGSYFVYSKLNVQKSNWEAGNTFTCSVLHEGLHNHHTEKSLSHSPGGGGGSGGGGSGGGGSGGGGSEVQLLESGGGLVQPGGSLRLSCAASGFTFSSHAMSWVRQAPGKGLEWVSAIWASGEQYYADSVKGRFTISRDNSKNTLYLQMNSLRAEDTAVYYCAKGWLGNFDYWGQGTLVTVSS
chain 2: ETEVGAMVGSNVVLSCIDPHRRHFNLSGLYVYWQIENPEVSVTYYLPYKSPGINVDSSYKNRGHLSLDSMKQGNFSLYLKNVTPQDTQEFTCRVFMNTATELVKILEEVVRLRVAANFSTPVISTSDSSNPGQERTYTCMSKNGYPEPNLYWINTTDNSLIDTALQNNTVYLNKLGLYDVISTLRLPWTSRGDVLCCVENVALHQNITSISQAESFTGNNTKNPQETHNNELKGSPGSSSSSGSAGSPGSSSSSGSADGCKPCICTVPEVSSVFIFPPKPKDVLTITLTPKVTCVVVAISKDDPEVQFSWFVDDVEVHTAQTKPREEQINSTFRSVSELPIMHQDWLNGKEFKCRVNSAAFGAPIEKTISKTKGRPKAPQVYTIPPPKEQMAKDKVSLTCMITNFFPEDITVEWQWNGQPAENYDNTQPIMDTDGSYFVYSDLNVQKSNWEAGNTFTCSVLHEGLHNHHTEKSLSHSPGGGGGSGGGGSGGGGSGGGGSEIVLTQSPGTLSLSPGERATLSCRASQSVSRSYLAWYQQKPGQAPRLLIIGASTRATGIPDRFSGSGSGTDFTLTISRLEPEDFAVYYCQQGQVIPPTFGQGTKVEIK
notes: also called FAP-mICOS-L; FAP-mICOSL
B4: ICOS(16E09)-FAP(28H1) 1+1, FAP-targeted anti-murine ICOS_1+1, mIgG1 DAPG, monovalent murine ICOS (16E09), monovalent FAP (28H1) (bispecific antibody)
heavy 1: EVQLVQSGAEVKKPGESLKISCKGSGYSFTSYWIGWVRQMPGKGLEWMGIIYPGDSDTRYSPSFQGQVTISADKSISTAYLQWSSLKASDTAMYYCARSSGPYGLYLDYWGQGTLVTVSSAKTTPPSVYPLAPGSAAQTNSMVTLGCLVEGYFPEPVTVTWNSGSLSSGVHTFPAVLQSDLYTLSSSVTVPSSTWPSQTVTCNVAHPASSTKVDEKIVPRDCGCKPCICTVPEVSSVFIFPPKPKDVLTITLTPKVTCVVVAISKDDPEVQFSWFVDDVEVHTAQTKPREEQINSTFRSVSELPIMHQDWLNGKEFKCRVNSAAFGAPIEKTISKTKGRPKAPQVYTIPPPKEQMAKDKVSLTCMITNFFPEDITVEWQWNGQPAENYDNTQPIMDTDGSYFVYSDLNVQKSNWEAGNTFTCSVLHEGLHNHHTEKSLSHSP
heavy 2: EIVLTQSPGTLSLSPGERATLSCRASQSVSRSYLAWYQQKPGQAPRLLIIGASTRATGIPDRFSGSGSGTDFTLTISRLEPEDFAVYYCQQGQVIPPTFGQGTKVEIKSSAKTTPPSVYPLAPGSAAQTNSMVTLGCLVKGYFPEPVTVTWNSGSLSSGVHTFPAVLQSDLYTLSSSVTVPSSTWPSQTVTCNVAHPASSTKVDKKIVPRDCGCKPCICTVPEVSSVFIFPPKPKDVLTITLTPKVTCVVVAISKDDPEVQFSWFVDDVEVHTAQTKPREEQINSTFRSVSELPIMHQDWLNGKEFKCRVNSAAFGAPIEKTISKTKGRPKAPQVYTIPPPKKQMAKDKVSLTCMITNFFPEDITVEWQWNGQPAENYKNTQPIMKTDGSYFVYSKLNVQKSNWEAGNTFTCSVLHEGLHNHHTEKSLSHSP
light 1: not shown
light 2: EVQLLESGGGLVQPGGSLRLSCAASGFTFSSHAMSWVRQAPGKGLEWVSAIWASGEQYYADSVKGRFTISRDNSKNTLYLQMNSLRAEDTAVYYCAKGWLGNFDYWGQGTLVTVSSASDAAPTVSIFPPSSEQLTSGGASVVCFLNNFYPKDINVKWKIDGSERQNGVLNSWTDQDSKDSTYSMSSTLTLTKDEYERHNSYTCEATHKTSTSPIVKSFNRNEC
notes: Murine IgG1 DAPG DDKK; also called ICOS(16E09)-FAP(28H1) 1 + 1 muIgG1 DAPG

How the values were obtained:
[1] = biological target: T2, dimeric murine ICOS antigen Fc(kih) fusion molecule (murine, biotinylated at the C-terminal Avi tag (BirA co-expression)); experiment: SPR, ProteOn XPR36, 25 C, one-shot kinetics, Fab dilution series over murine ICOS protein, 1:1 Langmuir
T2 construct: also called murine ICOS proteins; biotinylated ICOS-Fc fusion protein
Experimental: For one-shot kinetics measurements, dilution series of purified monoclonal antibody Fab fragments were injected simultaneously along separate channels 1-5. Buffer (PBST) was injected along the sixth channel to provide an “in-line” blank for referencing. Association rate constants (kₒₙ) and dissociation rate constants (koff) were calculated using a simple one-to-one Langmuir binding model in ProteOn Manager v3.1 software by simultaneously fitting the association and dissociation sensorgrams. The equilibrium dissociation constant (KD) was calculated as the ratio koff/kₒₙ (Table 18).

murine ICOS [2] = biological target: T1, murine ICOS; experiment: binding to CHO K1 cells expressing murine ICOS
murine ICOS [3] = biological target: T1, murine ICOS; experiment: cell-based or functional assay
murine FAP (mFAP) [4] = biological target: T3, murine FAP (mFAP) (murine, UniProt P97321 1-761); experiment: flow cytometry on NIH/3T3-moFAP cells stably overexpressing murine FAP, PE secondary, axis % Binding to murine FAP
T3 construct: Expressed on 3T3-mFAP / NIH/3T3-moFAP cl.34 cells; also called mouse FAP; moFAP
T3 sequence (P97321 whole entry): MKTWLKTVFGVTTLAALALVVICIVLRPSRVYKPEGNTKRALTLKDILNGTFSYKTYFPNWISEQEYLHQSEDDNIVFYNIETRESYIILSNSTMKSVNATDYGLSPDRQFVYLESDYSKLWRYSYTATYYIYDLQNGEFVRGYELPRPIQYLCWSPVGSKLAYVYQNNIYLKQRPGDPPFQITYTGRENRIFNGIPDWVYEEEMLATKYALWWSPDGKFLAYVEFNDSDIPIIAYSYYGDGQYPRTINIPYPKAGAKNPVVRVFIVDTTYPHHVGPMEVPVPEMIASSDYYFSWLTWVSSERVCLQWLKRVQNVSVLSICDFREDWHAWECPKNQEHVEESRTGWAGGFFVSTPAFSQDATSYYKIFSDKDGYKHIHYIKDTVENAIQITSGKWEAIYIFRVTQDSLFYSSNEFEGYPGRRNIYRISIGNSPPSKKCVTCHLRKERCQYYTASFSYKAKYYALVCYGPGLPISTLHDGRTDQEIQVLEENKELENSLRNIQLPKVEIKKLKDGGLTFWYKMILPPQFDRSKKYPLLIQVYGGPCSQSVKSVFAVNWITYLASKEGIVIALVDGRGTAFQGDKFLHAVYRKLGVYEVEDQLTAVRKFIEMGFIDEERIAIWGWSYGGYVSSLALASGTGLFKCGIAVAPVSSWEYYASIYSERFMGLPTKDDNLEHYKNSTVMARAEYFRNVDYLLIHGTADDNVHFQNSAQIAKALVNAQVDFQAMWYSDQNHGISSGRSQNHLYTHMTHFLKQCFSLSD
Experimental: (§1) Briefly, adherent MKN45, NIH/3T3-moFAP or CHO-mICOS cells were detached using trypsin (Gibco, 25300-054), washed and 0.1 million cells were transferred into a 96-round bottom well-plate. […] Thereafter, cells were washed twice with cold PBS 0.1% BSA and further incubated for further 30 min at 4° C. with a labeled secondary antibody (PE-conjugated, #715-116-150 from Jackson Immuno Research Lab, diluted 1 to 50 in FACS buffer). Cells were washed with FACS buffer and the staining was fixed for 20 min at 4° C. in the dark, using 75 μl of 1% PFA in FACS buffer per well. Cells were washed twice with FACS Buffer and re-suspended in FACS Buffer for analysis.
(§2) Fluorescence was analyzed by FACS using a FACS Fortessa (Software FACS Diva). Binding curves and EC₅₀ values were obtained using GraphPadPrism6.

murine ICOS [5] = biological target: T1, murine ICOS; experiment: flow cytometry on CHO cells stably overexpressing murine ICOS, PE secondary, axis % Binding to murine ICOS
Experimental: as §1, §2

murine FAP (mFAP) [6] = biological target: T3, murine FAP (mFAP); experiment: flow cytometry on NIH/3T3-moFAP cl.34 cells
Experimental: as §1, §2

murine ICOS [7] = biological target: T1, murine ICOS; experiment: flow cytometry on CHO cells expressing murine ICOS
Experimental: as §1, §2

murine FAP (mFAP) [8] = biological target: T3, murine FAP (mFAP); experiment: flow cytometry on 3T3-mFAP cells stably overexpressing murine FAP, median fluorescence intensity
Experimental: (§3) The staining was fixed for 20 min at 4° C. in the dark, using 75 μl of 1% PFA in FACS buffer per well. Fluorescence was analyzed by FACS using a FACS Fortessa (Software FACS Diva). Binding curves were obtained using GraphPadPrism6 and are shown in FIGS. 6A-6C and 7A-7B, respectively.

murine ICOS [9] = biological target: T1, murine ICOS; experiment: flow cytometry on CHO-K1 transfectants expressing murine ICOS
Experimental: as §3

murine FAP (mFAP) [10] = biological target: T3, murine FAP (mFAP); experiment: flow cytometry on 3T3-mFAP cells
Experimental: as §3

Binder | Kd [1] | binding result (murine ICOS [2]) | Fold increase vs TCB only at 3 nM CEA- or FAP-ICOS, % CD69^+CD4^+ (murine ICOS [3]) | Fold increase vs TCB only at 3 nM CEA- or FAP-ICOS, % CD69^+CD8^+ (murine ICOS [3]) | Fold increase vs TCB only at 75 nM CEA- or FAP-ICOS, % CD69^+CD4^+ (murine ICOS [3]) | Fold increase vs TCB only at 75 nM CEA- or FAP-ICOS, % CD69^+CD8^+ (murine ICOS [3]) | EC50 (read off the curve) (murine FAP (mFAP) [4]) | EC50 (read off the curve) (murine ICOS [5]) | EC50 (murine FAP (mFAP) [6]) | EC50 (murine ICOS [7]) | EC50 (read off the curve) (murine FAP (mFAP) [8]) | EC50 (murine ICOS [9]) | EC50 (murine FAP (mFAP) [10])
B1 | 293 nM | binds | – | – | – | – | – | – | – | – | – | – | –
B2 | – | – | 1.1 fold | 2.3 fold | 1.1 fold | 2.4 fold | ~3 nM | ~3 nM | 2.86 nM | 2.88 nM | – | – | –
B3 | – | – | – | – | – | – | – | – | – | – | ~30 nM | 28.1 nM | 71.8 nM
B4 | – | – | 1.2 fold | 1.9 fold | 1.2 fold | 1.9 fold | ~0.1 nM | – | 0.142 nM | 17.1 nM | – | – | –
